Assay results: patent US9518103B2, “Optogenetic probes for measuring membrane potential” (President and Fellows of Harvard College, priority 2014, dated 2016)
Where a chain is given by its changes, count along the chain named. Names and notes keep the numbering of the source. Like-named read-outs stand apart in the source and are kept apart here.

Assays:
HEK293T cells = experiment: Simultaneous whole-cell patch clamp electrophysiology and fluorescence in HEK cells (brightness, voltage sensitivity, speed); format: cell-based; details: for voltage sensitivity (ΔF/F per 100 mV): HEK cells
Description: Simultaneous electrophysiology and fluorescence in HEK cells: HEK293T cells (ATCC CRL-11268) were cultured and transfected following standard protocols.^10 Briefly, HEK-293 cells were grown at 37° C., 5% CO2, in DMEM supplemented with 10% FBS and penicillin-streptomycin. Plasmids were transfected using Transit 293T (Mirus) following the manufacturer's instructions, and assayed 48 hours later. The day before recording, cells were re-plated onto glass-bottom dishes (MatTek) at a density of ˜10,000 cells/cm^2.
Cells were supplemented with retinal by diluting stock retinal solutions (40 mM, DMSO) in growth medium to a final concentration of 5 μM, and then returning the cells to the incubator for 0.5-1 hour. All imaging and electrophysiology were performed in Tyrode buffer (containing, in mM: 125 NaCl, 2.5 KCl, 3 CaCl2, 1 MgCl2, 10 HEPES, 30 glucose pH 7.3, and adjusted to 305-310 mOsm with sucrose). A gap junction blocker, 2-aminoethoxydiphenyl borate (50 μM, Sigma), was added to eliminate electrical coupling between cells.
Filamented glass micropipettes (WPI) were pulled to a tip resistance of 5-10 MΩ, and filled with internal solution containing 125 mM potassium gluconate, 8 mM NaCl, 0.6 mM MgCl2, 0.1 mM CaCl2, 1 mM EGTA, 10 mM HEPES, 4 mM Mg-ATP, 0.4 mM Na-GTP (pH 7.3); adjusted to 295 mOsm with sucrose. Pipettes were positioned with a Sutter MP285 manipulator. Whole-cell, voltage and current clamp recordings were acquired using an […] 700B amplifier (Molecular Devices), filtered at 2 kHz with the internal Bessel filter and digitized with a National Instruments PCIE-6323 acquisition board at 5-10 kHz. Data was only acquired from HEK cells having reversal potentials between −10 and −40 mV, access resistance<25 MΩ and membrane resistance>0.5 GΩ.
Simultaneous whole-cell patch clamp recordings and fluorescence recordings were acquired on a home-built, inverted epifluorescence microscope, described previously^10 and described below in “Apparatus”. For step response measurements, voltage clamp electronics were compensated 90-95%. We examined variants of QuasAr1 with mutations at position 95 (Asn, Cys, Gin, His and Tyr) and position 106 (Arg, Asp, Asn, Cys, Glu, His, Lys and Tyr). These experiments confirmed that histidine at position 106 provided undetectable photocurrent, and the best combination of improved voltage sensitivity, and fast kinetics.
We compared the fluorescence, voltage sensitivity, and speed of the QuasArs to wild-type Arch in HEK cells, using epifluorescence microscopy and whole-cell patch clamp electrophysiology. Under low intensity illumination (640 nm, 500 mW/cm^2), QuasAr1 was 15-fold brighter than wild-type Arch, and QuasAr2 was 3.3-fold brighter (FIG. 1B; Methods).

[1] = earlier work, cited from earlier work
[2] = Quantum yield of solubilized protein (Cy5 reference); format: physicochemical; details: excitation at 600 nm
Description: Solubilization and spectroscopic characterization of QuasAr1 and QuasAr: E. coli expressing QuasAr1 and QuasAr2 were grown in 12 mL LB medium with 200 μg/ml ampicillin overnight. The next day, 12 mL of liquid LB medium containing 50 μM retinal, 200 μg/ml ampicillin and 0.1% arabinose was added into the overnight culture, followed by additional incubation at 37° C. for 4 hours. The cell pellets were collected by centrifugation and lysed by suspension in B-PER solution (Pierce). The cytoplasmic fraction was discarded after centrifugation and the colored insoluble fraction was resuspended in phosphate buffered saline (PBS) containing 1.5% n-dodecyl-β-D-maltopyranoside (Affymetrix, Inc.). The suspension was homogenized by an ultrasonic homogenizer and centrifuged (17,000 g for 15 mins, 4° C.). The solubilized protein in the supernatant was used for in vitro spectroscopic characterization.
Absorption spectra were recorded on a DU-800 UV-visible spectrophotometer (Beckman) and fluorescence spectra were recorded on a Safire2 plate reader (Tecan). Cy5 carboxylic acid (Cyandye) was used as the reference for quantum yield measurement. Quantum yield measurements were performed on a series of dilutions of each protein solution and standard, with absorbance values ranging from 0.01 to 0.05 at 600 nm. The fluorescence emission spectra of each dilution were recorded with excitation at 600 nm and the total fluorescence intensities obtained by integration. Integrated fluorescence intensity vs. absorbance was plotted for each protein and each standard. Quantum yields, Φ, were determined from the slopes (S) of each line using the equation: Φprotein=Φstandard×(Sprotein/Sstandard).

[3] = tested on: cultured rat hippocampal neurons; experiment: Photocurrent in cultured rat hippocampal neurons; format: cell-based
Description: FIGS. 4A-4B show the photophysics of QuasArs in mammalian cells. […] Steady state photocurrents were calculated by averaging the current over the last 0.25 seconds of light exposure and subtracting the holding current (cells held at −65 mV) in the dark. These currents hyperpolarized cells by 25±4 mV and 19±3 mV, respectively. […] The double mutants had mutations at the locations of the proton acceptor (Asp95) and proton donor (Asp106) to the Schiff base. QuasAr1 includes mutations D95H, D106H, and QuasAr2 includes mutations D95Q, D106H. The three additional backbone mutations in the QuasArs (P60S, T80S, F161V) increased brightness relative to the double mutants, Fluorescence of each Arch mutant was measured with excitation at 640 nm and emission from 660-760 nm. To control for variation in expression level, fluorescence was normalized by eGFP fluorescence (λexc=488 nm, λem=510−550 nm). Error bars represent s.e.m. for measurements on n=5-10 cells.
Measurements were performed on primary cultures at 13-15 DIV. Experiments were conducted in Tyrode's solution containing 125 mM NaCl, 2.5 mM KCl, 3 mM CaCl2, 1 mM MgCl2, 10 mM HEPES, 30 mM glucose (pH 7.3) and adjusted to 305-310 mOsm with sucrose. Prior to imaging, neurons were incubated with 5 μM all-trans retinal for 30 minutes and then washed with Tyrode's solution.
Synaptic blockers were added to the imaging medium for measurements of single-cell electrophysiology (Arch photocurrents, and single-cell excitability). The blockers comprised NBQX (10 μM, Tocris), D(−)-2-amino-5-phosphonovaleric acid (APS; […]), and gabazine (SR-95531, 20 μM, Tocris). For measurements of channel rhodopsin photocurrents in neurons, TTX (1 μM, Tocris) was included along with the synaptic blockers to prevent recruitment of voltage gated sodium channels. […] Recordings were terminated if membrane resistance changed by >10%. Experiments were performed at 23° C. under ambient atmosphere unless otherwise noted.

[4] = blue illumination (488 nm, 500 mW/cm^2)
[5] = red illumination (640 nm, 300 W/cm^2)

B1: Arch D95N: Archaerhodopsin 3 D95N mutant, non-pumping voltage indicator of US 2013/0224756 (protein)
chain: MDPIALQAGYDLLGDGRPETLWLGIGTLLMLIGTFYFLVRGWGVTDKDAREYYAVTILVPGIASAAYLSMFFGIGLTEVTVGGEMLDIYYARYANWLFTTPLLLLDLALLAKVDRVTIGTLVGVDALMIVTGLIGALSHTAIARYSWWLFSTICMIVVLYFLATSLRSAAKERGPEVASTFNTLTALVLVLWTAYPILWIIGTEGAGVVGLGIETLLFMVLDVTAKVGFGFILLRSRAILGDTEAPEPSAGADVSAAD
HEK293T cells
  voltage sensitivity (ΔF/F per 100 mV): 60%
[1]
  step response / response time: 41 ms
[1]; listed as Arch 3 D95N
  step response / response time: 40 ms
[2]
  Quantum yield: 4 × 10^−4
  Quantum yield relative to Arch D95N: 1

B2: Arch D95H/D106H: Arch double mutant D95H, D106H (protein)
chain: B1 chain with N95H, D106H
HEK293T cells
  voltage sensitivity compared with QuasAr2: three-fold less than the sensitivity of QuasAr2
[2]
  Quantum yield: 2 × 10^−3
  Quantum yield relative to Arch D95N: 4.2

B3: Arch D95H/D106H/F161V: Arch triple mutant D95H, D106H, F161V (protein)
chain: B1 chain with N95H, D106H, F161V
[2]
  Quantum yield: 5 × 10^−3
  Quantum yield relative to Arch D95N: 13

B4: Arch D95H/D106H/P60S: Arch triple mutant D95H, D106H, P60S (protein)
chain: B1 chain with P60S, N95H, D106H
[2]
  Quantum yield: 5 × 10^−3
  Quantum yield relative to Arch D95N: 12

B5: Arch(WT): wild-type Archaerhodopsin 3, light-driven proton pump from Halobacterium sodomense (protein)
chain: B1 chain with N95D
modifications: Halobacterium sodomense
notes: wild-type Archaerhodopsin 3, light-driven proton pump from Halobacterium sodomense
HEK293T cells
  voltage sensitivity compared with QuasAr2: three-fold less than the sensitivity of QuasAr2
  voltage sensitivity (ΔF/F per 100 mV): 40%
HEK293T cells; 23° C.
  τdown (+30 mV to −70 mV) % τ1: 67%
  τdown (+30 mV to −70 mV) τ1: 0.25 ms
  τdown (+30 mV to −70 mV) τ2: 1.9 ms
  τup (−70 mV to +30 mV) τ1: 0.6 ms
HEK293T cells; 23° C., HEK293 cells
  Brightness (λexc = 640 nm) 0.7 W/cm^2: 1
  Brightness (λexc = 640 nm) 800 W/cm^2: 4.0
  Sensitivity (ΔF/F per 100 mV): 40%
[1]
  step response / response time: 0.6 ms
[2]
  Quantum yield: *Due to the low light intensities used to determine QYs, fluorescence from Arch was not detected above baseline.
[3]; [4]
  hyperpolarization of cells by photocurrent: 19±3 mV
  photocurrent: 140±25 pA
[3]; [5]
  hyperpolarization of cells by photocurrent: 25±4 mV
  photocurrent: 220±30 pA
